B1: CPXM2 (parent)
chain: TASTKNCMVGYDMGATRCDFTLSK
B2: GMCL1 (parent)
chain: RPDTGDDAAGHGFCYCAGSHKRKR

Variants of: B1
Test: protein stability index of a GFP-peptide fusion (GPS, HEK-293T) (PSI 1-6); higher = more stable
Settings: c terminus: a fixed tail appended
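Note: lentivirally expressed fusions sorted by FACS into six bins by GFP to DsRed ratio, PSI derived from sequencing read proportions per bin multiplied by bin number.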

Protein stability index: each site, then its substitutions
D19: L 2.54 | V 1.78 | P 2.77 | S 2.08 | N 3.07 | G 1.94 | F 1.75 | A 2.9 | H 2.59 | Y 2.36 | Q 1.84 | M 1.82
T1: G 1.88 | S 2.86 | H 1.82 | P 2.1 | Y 1.71 | I 1.8 | R 1.92 | V 1.61 | M 2.45 | W 1.59 | D 3.69 | L 2.18 | A 2.66 | K 2.05
Y11: K 2.96 | C 2.07 | M 2.49 | I 2.06 | F 1.38 | E 3.49 | P 2.31 | R 2.59 | L 2.41 | H 3.32 | G 3.49 | Q 3 | V 2.33 | S 2.28 | N 2.6
G14: V 1.75 | S 2.5 | D 3.63 | M 2.17 | T 2.76 | L 2.31 | Q 2.44 | H 3 | F 1.93 | K 2.76 | I 2.31 | Y 1.59 | E 2.97 | W 2.15
S3: N 2.37 | W 2.09 | E 3.06 | I 1.67 | L 2.16 | K 1.99 | C 2.08 | Y 1.88 | F 1.63 | A 2.3 | G 2.47 | D 3.57
T21: V 2.48 | F 2.11 | L 2.52 | A 2.37 | C 1.57 | M 1.95 | K 3.35 | I 2.02 | H 3.16 | G 2.48 | D 2.52 | P 2.71 | Q 3.15 | Y 1.91
A2: I 1.8 | P 3.08 | Y 2.31 | F 2.58 | C 1.64 | L 1.99 | Q 2.94 | G 2.91 | T 2.06 | V 2.21 | H 2.26
V9: N 2.81 | W 2.09 | R 2.18 | L 2.05 | M 2.42 | E 3.33 | H 2.3 | K 2.12 | Q 3.5 | D 3.58
M13: D 3.76 | I 2.11 | R 2.5 | H 2.64 | Q 3.19 | C 2.08 | V 3.02 | Y 2.54 | F 2.01 | G 2.99
G10: Y 3.56 | H 1.74 | V 2.72 | L 2.38 | S 2.75 | I 1.67 | N 1.86 | W 1.64 | K 2.42
F20: L 2.42 | G 3.5 | M 2.78 | V 2.81 | W 2.28 | Q 3.05 | H 3.5 | D 3.85 | R 3.63 | Y 2.13 | E 4.26 | P 4.12
L22: R 2.35 | I 1.88 | S 2.41 | Q 2.96 | G 3.48 | F 2.12 | E 3.07 | K 3.36 | A 2.64 | W 1.74 | T 3.23
T16: A 2.7 | P 2.62 | L 2.45 | M 2.28 | I 1.6 | E 2.97 | N 2.75 | S 2.81 | C 2.26 | G 2.27 | K 2.74
C7: N 3.84 | H 3.48 | S 3.77 | Y 2.71 | E 4.44 | V 3.46 | K 3.18 | R 3.26 | W 2.99 | P 3.48 | F 3.21 | Q 3.69 | I 3.11 | D 4
T4: W 1.82 | N 2.4 | K 2.01 | Q 2.25 | F 1.92 | R 1.91 | P 2.47 | A 2.23 | L 1.85 | Y 2 | D 3.17 | C 2.65 | E 2.12 | I 2.25
S23: W 1.86 | K 2.78 | M 2 | C 1.46 | A 3.47 | N 2.6 | Q 2.26 | P 2.59 | E 2.45 | H 2.2 | I 1.89 | F 1.55 | R 3.34 | V 2.3 | T 1.94
R17: K 3.28 | V 3.7 | A 3.87 | M 3.07 | F 2.81 | W 2.13 | Y 2.63 | H 2.72 | E 3.79 | T 3.38 | I 3.2 | L 3.53
K5: I 2.04 | V 2.42 | A 2.3 | S 2.63 | E 3.21 | R 1.59 | F 2.25 | C 1.74 | M 2.38 | H 2.4 | N 2.28
K24: H 2.87 | R 1.56 | T 1.62 | L 1.52 | G 1.78 | V 2.78 | A 2.43 | N 2.03 | C 2.38 | M 2.85 | P 2.35
C18: I 2.84 | S 2.27 | R 2.68 | L 2.4 | G 1.87 | W 3.08 | D 2.98 | Q 1.75 | E 3.53 | Y 2.46 | H 2.8 | F 2.42 | P 3.2
A15: D 2.78 | Y 2.19 | K 2.84 | L 2.71 | S 1.68 | I 2.58 | C 1.8 | G 2.61 | V 3.16 | M 2.07 | Q 2.77 | H 2.89 | R 1.89
N6: V 2.16 | G 2.38 | E 3.22 | F 2.12 | M 2.34 | P 3.12 | H 2.04 | C 1.62 | Y 1.68 | S 2.66 | L 1.83
D12: L 1.21 | Y 1.69 | T 1.98 | P 2.15 | G 1.89 | R 2.58 | W 1.98 | F 1.62 | I 1.58 | N 2.02 | K 2.47 | Q 2.14
M8: N 3.95 | I 1.62 | G 2.08 | P 2.06 | E 4.05 | Q 2.62 | C 1.77 | L 2.14 | Y 2.22 | R 1.35 | S 2.48

Variants of: B2
Test: as above
Settings: c terminus: a fixed tail appended

Protein stability index, by site and new letter:
P2: T 2.3 | S 2.95 | A 3.02 | M 3.05 | C 3.23 | F 2.91 | H 2.96 | R 2.85 | G 3.01 | L 2.77 | E 3.14 | K 3.35 | D 3.46 | I 3.08 | Y 3.41 | W 3.4 | Q 2.91 | V 2.89 | N 3.27
R1: N 2.83 | I 2.34 | G 3.97 | S 2.96 | L 3.2 | Q 2.98 | D 2.92 | F 1.76 | H 3.08 | A 2.89 | V 2.5 | E 2.84 | K 2.99 | M 3.16 | P 2.71 | C 2.99 | W 3.2 | T 2.97 | Y 2
D3: F 2.76 | E 2.41 | A 2.62 | C 2.97

From the supplement of paper PMC10567573
